Key:
[1] = biological target: full-length recombinant TAL-H protein (38 kDa), cleaved with thrombin from a GST fusion protein (human)
[2] = biological target: tetanus toxoid (Clostridium tetani (strain Massachusetts / E88)) (UniProt P04958)
[3] = biological target: full-length recombinant TAL-H protein (38 kDa), cleaved with thrombin from a GST fusion protein (human); remark: listed apart in the source
[4] = biological target: purified human myelin basic protein (18.5 kDa) (human) (UniProt P02686)

## peripheral blood lymphocytes of MS patient eight (cells without a defined receptor)
[1]
  3H-TdR incorporation, Stimulation Index (S.I.): 4.5 S.I.

## peripheral blood lymphocytes of MS patient eleven (cells without a defined receptor)
[1]
  3H-TdR incorporation, Stimulation Index (S.I.): 10.3 S.I.

## peripheral blood lymphocytes of MS patient fifteen (cells without a defined receptor)
[2]
  Stimulation Index: 0.96 S.I.
[3]
  Stimulation Index: 4.61 S.I.
[4]
  Stimulation Index: 1.53 S.I.

## peripheral blood lymphocytes of MS patient five (cells without a defined receptor)
[1]
  3H-TdR incorporation, Stimulation Index (S.I.): 3.3 S.I.

## peripheral blood lymphocytes of MS patient four (cells without a defined receptor)
[1]
  3H-TdR incorporation, Stimulation Index (S.I.): 2.7 S.I.

## peripheral blood lymphocytes of MS patient fourteen (cells without a defined receptor)
[1]
  3H-TdR incorporation, Stimulation Index (S.I.): 7.1 S.I.

## peripheral blood lymphocytes of MS patient nine (cells without a defined receptor)
[1]
  3H-TdR incorporation, Stimulation Index (S.I.): 3.1 S.I.

## peripheral blood lymphocytes of MS patient one (cells without a defined receptor)
[2]
  Stimulation Index: 0.8 S.I.
[3]
  Stimulation Index: 1.81 S.I.
[4]
  Stimulation Index: 0.89 S.I.

## peripheral blood lymphocytes of MS patient seven (cells without a defined receptor)
[1]
  3H-TdR incorporation, Stimulation Index (S.I.): 1.4 S.I.

## peripheral blood lymphocytes of MS patient seventeen (cells without a defined receptor)
[2]
  Stimulation Index: 3.81 S.I.
[3]
  Stimulation Index: 6.47 S.I.
[4]
  Stimulation Index: 3.01 S.I.

## peripheral blood lymphocytes of MS patient six (cells without a defined receptor)
[1]
  3H-TdR incorporation, Stimulation Index (S.I.): 2.9 S.I.

## peripheral blood lymphocytes of MS patient thirteen (cells without a defined receptor)
[2]
  Stimulation Index: 0.79 S.I.
[3]
  Stimulation Index: 3.95 S.I.
[4]
  Stimulation Index: 2.25 S.I.

## peripheral blood lymphocytes of MS patient twelve (cells without a defined receptor)
[1]
  3H-TdR incorporation, Stimulation Index (S.I.): 3.1 S.I.

## peripheral blood lymphocytes of MS patient two (cells without a defined receptor)
[1]
  3H-TdR incorporation, Stimulation Index (S.I.): 4.7 S.I.

## peripheral blood lymphocytes of control donor PEG (cells without a defined receptor)
[1]
  3H-TdR incorporation, Stimulation Index (S.I.): 0.7 S.I.

## peripheral blood lymphocytes of control donor PRO (cells without a defined receptor)
[1]
  3H-TdR incorporation, Stimulation Index (S.I.): 1 S.I.

## peripheral blood lymphocytes of control donor sixteen (cells without a defined receptor)
[1]
  3H-TdR incorporation, Stimulation Index (S.I.): 1.4 S.I.

## peripheral blood lymphocytes of control donor ten (cells without a defined receptor)
[1]
  3H-TdR incorporation, Stimulation Index (S.I.): 2.3 S.I.

## peripheral blood lymphocytes of control donor three (cells without a defined receptor)
[1]
  3H-TdR incorporation, Stimulation Index (S.I.): 1 S.I.
